Experiments:
[1] = target: human intestinal alkaline phosphatase (human) (UniProt P09923); assay: immunoblot, serial dilution of human small intestinal lysate; 7.5 µg lysate loaded
[2] = target: human intestinal alkaline phosphatase (human) (UniProt P09923); assay: immunoblot, serial dilution of human small intestinal lysate; 3.75 µg lysate loaded
[3] = target: human intestinal alkaline phosphatase (human) (UniProt P09923); assay: immunoblot, serial dilution of human small intestinal lysate; 0.015 µg lysate loaded
[4] = target: human intestinal alkaline phosphatase (human) (UniProt P09923); assay: immunoblot, serial dilution of human small intestinal lysate; 0.029 µg lysate loaded
[5] = target: human intestinal alkaline phosphatase (human) (UniProt P09923); assay: immunoblot, serial dilution of human small intestinal lysate; 0.059 µg lysate loaded
[6] = target: human intestinal alkaline phosphatase (human) (UniProt P09923); assay: immunoblot, serial dilution of human small intestinal lysate; 0.117 µg lysate loaded
[7] = target: human intestinal alkaline phosphatase (human) (UniProt P09923); assay: immunoblot, serial dilution of human small intestinal lysate; 0.234 µg lysate loaded
[8] = target: human intestinal alkaline phosphatase (human) (UniProt P09923); assay: immunoblot, serial dilution of human small intestinal lysate; 0.469 µg lysate loaded
[9] = target: human intestinal alkaline phosphatase (human) (UniProt P09923); assay: immunoblot, serial dilution of human small intestinal lysate; 0.938 µg lysate loaded
[10] = target: human intestinal alkaline phosphatase (human) (UniProt P09923); assay: immunoblot, serial dilution of human small intestinal lysate; 1.875 µg lysate loaded

UniProt P09923, sequence (P09923 20-503 limits assumed): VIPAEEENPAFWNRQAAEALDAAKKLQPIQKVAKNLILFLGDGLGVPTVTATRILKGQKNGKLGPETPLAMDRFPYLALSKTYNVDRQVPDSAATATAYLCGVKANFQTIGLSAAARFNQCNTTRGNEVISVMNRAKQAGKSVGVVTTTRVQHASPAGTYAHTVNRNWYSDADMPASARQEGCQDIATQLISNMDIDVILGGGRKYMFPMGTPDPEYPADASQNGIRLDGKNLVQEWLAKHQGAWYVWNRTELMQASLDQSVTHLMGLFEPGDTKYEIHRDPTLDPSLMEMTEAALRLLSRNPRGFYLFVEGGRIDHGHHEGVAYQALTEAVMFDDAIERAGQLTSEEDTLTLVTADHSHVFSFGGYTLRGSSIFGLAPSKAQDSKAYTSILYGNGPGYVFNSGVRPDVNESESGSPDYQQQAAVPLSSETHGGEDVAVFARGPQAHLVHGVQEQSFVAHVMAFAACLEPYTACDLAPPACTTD

Substance: primary rabbit polyclonal antibodies against human iAP (Abcam, ab7322) (antibody)
- mean relative fluorescence units for the total iAP (relative fluorescence units) [1]: 217000
- mean relative fluorescence units for the total iAP (relative fluorescence units) [2]: 234000
- mean relative fluorescence units for the total iAP (relative fluorescence units) [3]: 227
- mean relative fluorescence units for the total iAP (relative fluorescence units) [4]: 1160
- mean relative fluorescence units for the total iAP (relative fluorescence units) [5]: 4920
- mean relative fluorescence units for the total iAP (relative fluorescence units) [6]: 18200
- mean relative fluorescence units for the total iAP (relative fluorescence units) [7]: 44100
- mean relative fluorescence units for the total iAP (relative fluorescence units) [8]: 75700
- mean relative fluorescence units for the total iAP (relative fluorescence units) [9]: 143000
- mean relative fluorescence units for the total iAP (relative fluorescence units) [10]: 211000
